This is an account of results in article PMC6692503, “Short- and Long-Term Effects of UVA on Arabidopsis Are Mediated by a Novel cGMP Phosphodiesterase” (Current Biology, 2019).

Substrate in the series: [H][C@@]12COP(=O)(O)O[C@@]1([H])[C@@H](O)[C@H](n1cnc3c(=O)[nH]c(N)nc31)O2
In words: phosphodiesterase assay kit (Biomol Green phosphate detection), Michaelis-Menten plot. The format is biochemical, Arabidopsis thaliana. To be noted: 25 °C, 60 min, GST fusion, Figure 3 legend prints 0.2587 μM, substrate of the plot not named in the legend.

B1: CN-PDE1 (AtCN-PDE1, PDE1, AtPDE1) (Arabidopsis thaliana) (protein)
chain: MAAKTMRKAEELVEKAMKGNDASHDAWHVWRVRDLALSIAREEGLSSNSDSMEIVELAALLHDIGDYKYIRDPSEEKLVENFLDDEGIEETKKTKILTIINGMGFKDELAGVALCESLPEFGVVQDADRLDAIGAIGIARCFTFGGSRNRVLHDPEIKPRTELTKEQYIKREEQTTINHFHEKLLKLKKLMKTEAGKRRAEKRHKFMEEYLKEFYEEWDGST
With B1, the Km is 0.259 µM.
